Laboratory results taken from article PMC7193609, “DNA replication machinery prevents Rad52-dependent single-strand annealing that leads to gross chromosomal rearrangements at centromeres”.

Target: T1, Rad52-6His-3Flag (wild type) (Schizosaccharomyces pombe (fission …, UniProt P36592 1-469))
T1 sequence: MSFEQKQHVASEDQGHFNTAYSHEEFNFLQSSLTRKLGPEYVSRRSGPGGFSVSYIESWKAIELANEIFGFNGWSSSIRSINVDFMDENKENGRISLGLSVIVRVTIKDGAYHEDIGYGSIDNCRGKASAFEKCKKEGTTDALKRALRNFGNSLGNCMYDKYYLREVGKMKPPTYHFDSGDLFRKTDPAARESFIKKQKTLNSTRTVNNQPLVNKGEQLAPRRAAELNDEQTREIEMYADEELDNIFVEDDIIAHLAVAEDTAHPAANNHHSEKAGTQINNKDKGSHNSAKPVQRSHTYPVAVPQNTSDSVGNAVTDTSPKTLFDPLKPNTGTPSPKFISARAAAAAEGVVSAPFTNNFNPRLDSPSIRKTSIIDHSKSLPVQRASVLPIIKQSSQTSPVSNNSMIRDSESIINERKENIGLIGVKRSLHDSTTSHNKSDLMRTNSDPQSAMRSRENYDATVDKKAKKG
Test: EMSA; 0-200 nM Rad52, 2 nM DNA; complexes retained in well; EMSA: 32 mM Tris-HCl pH 7.8, 40 mM KCl, 0.8 mM DTT, 0.08 mg/mL BSA, 30 °C, 10 min; 10% native PAGE in 1x TAE
Details: protein: recombinant; tags: C-terminal 6His-3Flag; label: 5'-32P; single strand, 48 nt

## GAAGCATTTATCAGGGTTATTGTCTCATGAGCGGATACATATTTGAAT (ssDNA) [Oligo211]
  binding result: binds
